# From US10184116B2, “Chimeric genes for the catalytic protein of Oplophorus luciferase and use thereof” (JNC CORPORATION, priority 2014, dated 2019)
# Residue numbers refer to the chain shown, from its start. In names and notes the source's numbering stands.
# B1: WNanoKAZ-V90I: single amino acid-substituted WNanoKAZ mutant, valine 90 back to isoleucine; SEQ ID NO: 8 (protein)
# chain: FTLADFVGDWQQTAGYNQDQVLEQGGLSSLFQALGVSVTPIQKVVLSGENGLKADIHVIIPYEGLSGFQMGLIEMIFKVVYPVDDHHFKIILHYGTLVIDGVTPNMIDYFGRPYEGIAVFDGKKITVTGTLWNGNKIIDERLINPDGSLLFRVTINGVTGWRLCERILA
# B2: WNanoKAZ-R166N: single amino acid-substituted WNanoKAZ mutant R166N; SEQ ID NO: 16 (protein)
# chain: B1 chain with I90V, R166N
# B3: WNanoKAZ-K124Q: single amino acid-substituted WNanoKAZ mutant K124Q; SEQ ID NO: 12 (protein)
# chain: B1 chain with I90V, K124Q
# B4: WNanoKAZ-I138Y: single amino acid-substituted WNanoKAZ mutant I138Y; SEQ ID NO: 14 (protein)
# chain: B1 chain with I90V, I138Y
# B5: WNanoKAZ-E115P: WNanoKAZ with substitution of proline for glutamic acid at position 115; SEQ ID NO: 10 (protein)
# chain: B1 chain with I90V, E115P
# Tested on: not listed separately
# Assay: Luminescence activity of ZZ-fused WNanoKAZ mutants in crude enzyme solution (Example 10)
# Assay type: biochemical
# Details: ZZ-fused, pCold-ZZ-P- vector in E. coli, coelenterazine substrate, KAZ = 1.0
# Procedure: In order to express ZZ-fused KAZ mutants in E. coli, the recombinant plasmid produced in EXAMPLE 8 and pCold-ZZ-P-WNanoKAZ produced in EXAMPLE 1 were used. The crude enzyme solution was prepared in a manner similar to EXAMPLE 2, using the E. coli BL21 strain (Novagen, Madison, Wis.) as a host cell. Then, 5 μL of the crude enzyme solution obtained was subjected to SDS-PAGE analysis to confirm the protein expression in all mutants. In FIG. 1, M and 1 to 8 represent as follows. M: molecular weight size markers; 1: ZZ-P-KAZ; 2: ZZ-P-WNanoKAZ; 3: ZZ-P-WNanoKAZ-V90I; 4: ZZ-P-WNanoKAZ-E115P; 5: ZZ-P-WNanoKAZ-K124Q; 6: ZZ-P-WNanoKAZ-I138Y; 7: ZZ-P-WNanoKAZ-R166N; 8: ZZ-P-dnKAZ. It was confirmed from FIG. 1 that all mutants were expressed.
# (§1) DTT was added to the crude enzyme solution obtained in EXAMPLE 9 at a final concentration of 1 mM, and then allowed to stand in an ice-water bath over 8 hours or more. After 1 μL of the crude enzyme solution was added to 100 μL of 30 mM Tris-HCl (pH 7.6)-10 mM EDTA (Wako Pure Chemical Industries, Ltd.) containing 1 μg of coelenterazine (manufactured by JNC Corp.), a luminescence reaction was started. Luminescence activity was measured for 60 seconds using a luminometer (manufactured by Atto Inc.: AB2200). The maximum intensity of luminescence (Imax) was given as a relative luminescence activity (rlu).
row,Relative luminescence activity (Imax),Molecule
1,34,B1
2,32,B2
3,34,B3
4,8.5,B4
5,31,B5

# Same assay, conditions: coelenterazine substrate
row,Molecule,activity compared with dnKAZ (in words)
1,B4,decreased to the same level as that of dnKAZ

# Same assay, conditions: coelenterazine substrate, Imax
fold higher activity than native KAZ [fold],Molecule,fold higher activity than the relative activity 7.4 of dnKAZ [fold]
34,B1,4.6
32,B2,4.3
34,B3,4.6
8.5,B4,1.1
31,B5,4.2

# Tested on: not listed separately
# Assay: Substrate specificity of WNanoKAZ mutants, crude enzyme solution (Example 11)
# Assay type: biochemical
# Details: Imax
# Procedure: as §1
# Each of the coelenterazine analogues used for substrate specificity studies was synthesized by the methods described in publications. Specifically, bis-coelenterazine was synthesized by the method described in Nakamura et al. (1997) Tetrahedron Lett. 38: 6405-6406, furimazine by the method described in Hall et al. (2012) ACS Chem. Biol. […], and, 6h-coelenterazine, f-coelenterazine and 6h-f-coelenterazine by the method described in Inouye et al (2013) Biochem. Biophys. Res. Commun. 437: 23-28. Luminescence activity was measured by the same method as in EXAMPLE 10, using the crude enzyme solution obtained in EXAMPLE 10, in which coelenterazine or its analogue was used as the luminescence substrate.
"Relative luminescence activity, Furimazine, Imax","Relative luminescence activity, bis-CTZ, Imax","Relative luminescence activity, f-CTZ, Imax","Relative luminescence activity, h-CTZ, Imax",Molecule
17,23,31,41,B1
17,17,38,43,B2
18,36,64,70,B3
11,18,29,35,B4
13,18,22,27,B5

# Same assay, conditions: Int.
"Relative luminescence activity, Furimazine, Int.","Relative luminescence activity, bis-CTZ, Int.","Relative luminescence activity, f-CTZ, Int.","Relative luminescence activity, h-CTZ, Int.",Molecule
15,21,22,22,B1
12,18,27,28,B2
11,33,40,41,B3
8.9,17,18,22,B4
11,19,14,17,B5

# Same assay, conditions: coelenterazine substrate
row,fold higher activity than the other coelenterazine analogues when coelenterazine was used as the substrate [fold],Molecule
1,4.6,B1
2,4.3,B2
3,4.6,B3
4,1.1,B4
5,4.2,B5

# Same assay, conditions: substrate 6h-CTZ, Imax
row,"Relative luminescence activity, 6h-CTZ, Imax",Molecule
1,5.1,B1
2,4.6,B2
3,6.2,B3
4,1.7,B4
5,5.9,B5

# Same assay, conditions: substrate 6h-CTZ, Int.
row,"Relative luminescence activity, 6h-CTZ, Int.",Molecule
1,5.6,B1
2,6.1,B2
3,6.1,B3
4,2.8,B4
5,6.1,B5

# Same assay, conditions: substrate 6h-f-CTZ, Imax
row,"Relative luminescence activity, 6h-f-CTZ, Imax",Molecule
1,23,B1
2,13,B2
3,40,B3
4,17,B4
5,14,B5

# Same assay, conditions: substrate 6h-f-CTZ, Int.
row,"Relative luminescence activity, 6h-f-CTZ, Int.",Molecule
1,23,B1
2,8.8,B2
3,35,B3
4,10,B4
5,11,B5

# Same assay, conditions: substrate CTZ, Imax
row,"Relative luminescence activity, CTZ, Imax",Molecule
1,34,B1
2,32,B2
3,34,B3
4,8.5,B4
5,31,B5

# Same assay, conditions: substrate CTZ, Int.
row,"Relative luminescence activity, CTZ, Int.",Molecule
1,35,B1
2,36,B2
3,32,B3
4,8.9,B4
5,26,B5

# Tested on: CHO-K1 cells
# Assay: Luminescence activity of WNanoKAZ mutants expressed by secretory expression vectors in animal culture cells (Example 13)
# Assay type: cell-based, Chinese hamster
# Details: pcDNA3-GLsp- secretory vector, cell extracts, coelenterazine substrate
# Procedure: Chinese hamster ovary cell line CHO-K1 was cultured in Ham's F-12 medium (manufactured by Wako Pure Chemical Industries, Ltd.) supplemented with 10% (v/v) fetal bovine serum (manufactured by Biowest Inc.). The CHO-K1 cells were seeded in a 6-well plate in 1×10^5 cells/well/2 mL medium (n=2) and cultured in an incubator at 37° C. in 5% (v/v) CO2. After 24 hours, the purified recombinant plasmid was transfected to CHO-K1 cells using a FuGene HD transfection kit (manufactured by Promega Corp.) and the cells were used for subsequent experiment. Specifically, 1 μg of the recombinant plasmid, 0.1 μg of the internal standard vector pGL4.13 [Luc2/sv40] and 3 μL of FuGene HD were added to 100 μL of the medium and allowed to stand at room temperature for 15 minutes. Subsequently, 100 μL of the DNA-FuGene complex solution was added to the cells in the 6-well plate. After incubation for 46 hours, the culture medium was collected. On the other hand, the KAZ mutant expressed in the cells was washed 3 times with 3 mL of 1×PBS, then suspended in 1 mL of 1×PBS and disrupted by sonication on ice. The resultant cell extract of WNanoKAZ was used as the enzyme solution.
# After adding 5 μL of the culture medium and cell extract obtained in EXAMPLE 5 to 100 μL of 30 mM Tris-HCl (pH 7.6)-10 mM EDTA (Wako Pure Chemical Industries, Ltd.) containing 1 μg of coelenterazine (manufactured by JNC Corp.), a luminescence reaction was started. Luminescence activity was measured for 60 seconds using a luminometer (manufactured by Atto Inc.: AB2200). The maximum intensity of luminescence (Imax) was given as a percentage (%).
# The recombinant plasmid obtained in EXAMPLE 12 or 4 was purified in a manner similar to EXAMPLE 5 and dissolved in sterile water. The firefly luciferase vector (pGL4.13 [Luc2/sv40]: manufactured by Promega Corp.) was similarly prepared and used as an internal standard.
# Culture medium containing two amino acid-substituted KAZ mutants and three amino acid-substituted KAZ mutants and cell extracts of the KAZ mutants as the enzyme solutions were prepared by the same procedure as in EXAMPLE 9.
# The resultant culture medium and cell extracts were used to measure luminescence activity as in EXAMPLE 6.
row,Molecule,"Relative luminescence activity (%, Imax) Cell extracts [%]"
1,B1,15
2,B2,26
3,B3,21
4,B4,10
5,B5,12

# Same assay, conditions: pcDNA3-GLsp- secretory vector, culture medium, coelenterazine substrate
row,Molecule,"Relative luminescence activity (%, Imax) Culture medium [%]"
1,B1,0.03
2,B2,<0.01
3,B3,0.03
4,B4,<0.01
5,B5,<0.01
